Assays:
Assay in all cases: ELISA, lectin-captured E1E2 lysate, Ab 1 ug/ml
[1] = target: E1E2 complex (H77) with E1 mutation N205A (HCV genotype 1a, isolate H77, UniProt P27958 192-383; P27958 384-746)
[2] = target: E1E2 complex (H77) with E1 mutation S236A (HCV genotype 1a, isolate H77, UniProt P27958 192-383; P27958 384-746)
[3] = target: E1E2 complex (H77) with E1 mutation W239A (HCV genotype 1a, isolate H77, UniProt P27958 192-383; P27958 384-746)
[4] = target: E1E2 complex (H77) with E1 mutation N196A/N209A (HCV genotype 1a, isolate H77, UniProt P27958 192-383; P27958 384-746)
[5] = target: E1E2 complex (H77) with E1 mutation T292A (HCV genotype 1a, isolate H77, UniProt P27958 192-383; P27958 384-746)
[6] = target: E1E2 complex (H77) with E1 mutation H298A (HCV genotype 1a, isolate H77, UniProt P27958 192-383; P27958 384-746)
[7] = target: E1E2 complex (H77) with E1 mutation H316A (HCV genotype 1a, isolate H77, UniProt P27958 192-383; P27958 384-746)
[8] = target: E1E2 complex (H77) with E1 mutation N196A/N305A (HCV genotype 1a, isolate H77, UniProt P27958 192-383; P27958 384-746)
[9] = target: E1E2 complex (H77) with E1 mutation M323A (HCV genotype 1a, isolate H77, UniProt P27958 192-383; P27958 384-746)
[10] = target: E1E2 complex (H77) with E1 mutation W353A (HCV genotype 1a, isolate H77, UniProt P27958 192-383; P27958 384-746)
[11] = target: E1E2 complex (H77) with E1 mutation N305A/N209A (HCV genotype 1a, isolate H77, UniProt P27958 192-383; P27958 384-746)
[12] = target: E1E2 complex (H77) with E2 mutation T621A (HCV genotype 1a, isolate H77, UniProt P27958 192-383; P27958 384-746)
[13] = target: E1E2 complex (H77) with E2 mutation G635A (HCV genotype 1a, isolate H77, UniProt P27958 192-383; P27958 384-746)
[14] = target: E1E2 complex (H77) with E2 mutation A642G (HCV genotype 1a, isolate H77, UniProt P27958 192-383; P27958 384-746)
[15] = target: E1E2 complex (H77) with E2 mutation A439G (HCV genotype 1a, isolate H77, UniProt P27958 192-383; P27958 384-746)
[16] = target: E1E2 complex (H77) with E2 mutation L441A (HCV genotype 1a, isolate H77, UniProt P27958 192-383; P27958 384-746)
[17] = target: E1E2 complex (H77) with E2 mutation F442A (HCV genotype 1a, isolate H77, UniProt P27958 192-383; P27958 384-746)
[18] = target: E1E2 complex (H77) with E2 mutation Y443A (HCV genotype 1a, isolate H77, UniProt P27958 192-383; P27958 384-746)
[19] = target: E1E2 complex (H77) with E2 mutation F447A (HCV genotype 1a, isolate H77, UniProt P27958 192-383; P27958 384-746)
[20] = target: E1E2 complex (H77) with E2 mutation R614A (HCV genotype 1a, isolate H77, UniProt P27958 192-383; P27958 384-746)
[21] = target: E1E2 complex (H77) with E2 mutation Y618A (HCV genotype 1a, isolate H77, UniProt P27958 192-383; P27958 384-746)
[22] = target: E1E2 complex (H77) with E2 mutation P619A (HCV genotype 1a, isolate H77, UniProt P27958 192-383; P27958 384-746)

B1: N4 IgG (antibody, V domains shown)
VH: VQLLEQSGPEVKKPGDSLRISCKMSGDSLVTTWIGWVRQKPGQGLEWMGIINPGDSSTNIYPGDSATRYGPSFQGQVTISIDKSTSTAYLQWNNVKASDTGIYYCARHVPVPISGTFLWREREMHDFGYFDDWGQGTLVIVSS
VL: ELTLTQSPGTLSLSPGERATLSCRASQSVSNNYLAWYQQKPGQAPRLLIYGASSRATGIPDRFSGSGSGTGFTLIISRLEPEDFAVYYCQQYGSSSITFGQGTRLEIKR
notes: also called IgG N4
B1 was tested, and the “Binding relative to wt (%)” value [1] was 3%, the “Binding relative to wt (%)” value [2] was 81% and the “Binding relative to wt (%)” value [3] was 67%. For the same binder, the “Binding relative to wt (%)” value [4] was 21%, the “Binding relative to wt (%)” value [5] was 104% and the “Binding relative to wt (%)” value [6] was 62%. The “Binding relative to wt (%)” value [7] was 70%, the “Binding relative to wt (%)” value [8] was 4% and the “Binding relative to wt (%)” value [9] was 99%. For the same binder, the “Binding relative to wt (%)” value [10] was 70%, the “Binding relative to wt (%)” value [11] was 17% and the “Binding relative to wt (%)” value [12] was 34%. The “Binding relative to wt (%)” value [13] was 80%, the “Binding relative to wt (%)” value [14] was 65% and the “Binding relative to wt (%)” value [15] was 12%. For the same binder, the “Binding relative to wt (%)” value [16] was 18%, the “Binding relative to wt (%)” value [17] was 22% and the “Binding relative to wt (%)” value [18] was 5%. For the same binder, the “Binding relative to wt (%)” value [19] was 28%, the “Binding relative to wt (%)” value [20] was 16% and the “Binding relative to wt (%)” value [21] was 33%. The “Binding relative to wt (%)” value [22] was 41%.

Source: patent publication US20110311550A1 (Scripps Research, published 2011)
